B1: VGLL1-derived 10-mer peptide LSELETPGKY (peptide)
peptide: LSELETPGKY
notes: This is the native peptide eluted from immunoprecipitated HLA class I. The 13C/15N-lysine labeled synthetic peptide served only as the MS standard; also called VGLL1 231-240 peptide; VGLL1 peptide
B2: VGLL1 TCR #1 (TCR, V domains shown)
Valpha: AQKVTQAQTEISVVEKEDVTLDCVYETRDTTYYLFWYKQPPSGELVFLIRRNSFDEQNEISGRYSWNFQKSTSSFNFTITASQVVDSAVYFCALSPGANSKLTFGKGITLSVRP
Vbeta: DAGVTQSPTHLIKTRGQQVTLRCSPKSGHDTVSWYQQALGQGPQFIFQYYEEEERQRGNFPDRFSGHQFPNYSSELNVNALLLGDSALYLCASSVGTGITEAFFGQGTRLTVV
B3: VGLL1 TCR #2 (TCR, V domains shown)
Valpha: ENVEQHPSTLSVQEGDSAVIKCTYSDSASNYFPWYKQELGKRPQLIIDIRSNVGEKKDQRIAVTLNKTAKHFSLHITETQPEDSAVYFCAARGLTGGGNKLTFGTGTQLKVEL
Vbeta: GVTQSPTHLIKTRGQQVTLRCSPKSGHDTVSWYQQALGQGPQFIFQYYEEEERQRGNFPDRFSGHQFPNYSSELNVNALLLGDSALYLCASSVGTGITEAFFGQGTRLTVV
B4: VGLL1 TCR #3 (TCR, V domains shown)
Valpha: ENVEQHPSTLSVQEGDSAVIKCTYSDSASNYFPWYKQELGKRPQLIIDIRSNVGEKKDQRIAVTLNKTAKHFSLHITETQPEDSAVYFCAAIPNSGGYQKVTFGIGTKLQVIP
Vbeta: GVTQSPTHLIKTRGQQVTLRCSPKSGHDTVSWYQQALGQGPQFIFQYYEEEERQRGNFPDRFSGHQFPNYSSELNVNALLLGDSALYLCASSVGTGITEAFFGQGTRLTVV
B5: VGLL1 TCR #4 (TCR, V domains shown)
Valpha: QQQVKQSPQSLIVQKGGISIINCAYENTAFDYFPWYQQFPGKGPALLIAIRPDVSEKKEGRFTISFNKSAKQFSLHIMDSQPGDSATYFCAAVRYNFNKFYFGSGTKLNVKP
Vbeta: GVTQSPTHLIKTRGQQVTLRCSPKSGHDTVSWYQQALGQGPQFIFQYYEEEERQRGNFPDRFSGHQFPNYSSELNVNALLLGDSALYLCASSVGTGITEAFFGQGTRLTVV

Experiments:
HLA-A*0101 = biological target: T1, HLA-A*0101 (human); test: HLA class I immunoprecipitation, acid elution, tandem MS
T1 construct: whole, on cells; The peptide was eluted from total HLA class I immunoprecipitated with W6/32; also called HLA-A1; HLAA1
Experimental: Protein A/G Ultralink resin beads were used to immunoprecipate HLA class I molecules and HLA-bound peptides were then eluted with 0.1M acetic acid. HLA-A, B, C isolation was confirmed by Western blot analysis, then HLA-positive elutes were analyzed by tandem mass spectrometry (MS/MS). HLA class I protein recovery was semi-quantitatively assessed by rating Western blot band intensity on a scale from 0 (not detectable) to 4 (highest intensity). Tumor-associated HLA-bound peptides were injected onto HPLC system (Dionex 3000 RSLC), and separated by reverse-phase chromatography in 0.1% formic acid water-acetonitrile on 1.8 μm C18 (Agilent Technologies) in the MS/MS discovery phase. Peptides were analyzed on an Orbitrap Elite mass spectrometer (Thermo-Fisher) using data-dependent acquisition.

[1] = biological target: T2, VGLL1 (Vestigial-like 1) peptide on HLA-A*01:01 (human); test: multimer staining
T2 peptide: LSELETPGKY

Binder	binding result (HLA-A*0101)	binding result [1]
B1	binds	–
B2	–	recognises
B3	–	recognises
B4	–	recognises
B5	–	recognises

Reference: patent publication US20230212256A1 (University of Texas, published 2023)
